How the values were obtained:
Mcl-1 = biological target: T1, Mcl-1 (Homo sapiens, UniProt Q07820); test: LUMIER full-length protein interaction; type: binding; conditions: LUMIER results for Mcl-1, Z-score relative to Gaussian fit of the data
T1 construct: myc-Mcl-1 SPOT array & FP; made in house
Experimental: (§1) The LUMIER assay was carried out as previously described with the following modifications. A stable cell line expressing receptor tagged on the N-terminus with Nanoluc luciferase was created (the prey). […] Each bait construct was transfected into the receptor-luciferase cells in a 96-well format and after 48 hours the cells were lysed and transferred to 384-well plates coated with anti-FLAG. After incubation and washing, luminescence was measured to quantify how much receptor-luciferase was captured by the bait protein. Anti-Flag ELISA signal was used to exclude bait proteins that were not expressed. The experiment was carried out two times, each in duplicate.

Bcl-xL = biological target: T2, Bcl-xL (Homo sapiens, UniProt Q07817); test: LUMIER full-length protein interaction; type: binding; conditions: LUMIER results for Bcl-xL, Z-score of the interaction relative to the Gaussian fit of the data
T2 construct: myc-Bcl-xL SPOT array & FP; made in house
Experimental: as §1

T1 sequence (Q07820 with tags, fused parts or gaps): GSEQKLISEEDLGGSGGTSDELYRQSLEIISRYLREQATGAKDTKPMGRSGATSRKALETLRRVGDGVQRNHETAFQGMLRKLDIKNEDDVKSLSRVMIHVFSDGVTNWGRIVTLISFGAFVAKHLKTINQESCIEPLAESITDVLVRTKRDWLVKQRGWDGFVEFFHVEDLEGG
T2 sequence (Q07817 with tags, fused parts or gaps): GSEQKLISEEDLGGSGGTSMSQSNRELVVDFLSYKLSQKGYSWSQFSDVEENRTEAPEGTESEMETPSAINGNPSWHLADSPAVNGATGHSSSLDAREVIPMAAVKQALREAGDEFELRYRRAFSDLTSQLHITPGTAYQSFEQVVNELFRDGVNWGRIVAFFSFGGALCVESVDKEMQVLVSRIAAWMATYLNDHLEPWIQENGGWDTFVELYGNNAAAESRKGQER

- z-score 1.2 (Mcl-1; experiment 1, duplicate 2): 0.31
- z-score 2.1 (Mcl-1; experiment 2, duplicate 1): 0.117
- z-score 2.2 (Mcl-1; experiment 2, duplicate 2): 0.04852
- z-score 1.1 (Bcl-xL; experiment 1, duplicate 1): 11.5243
- z-score 1.2 (Bcl-xL; experiment 1, duplicate 2): 0.8005
- z-score 2.1 (Bcl-xL; experiment 2, duplicate 1): -0.1835
- z-score 2.2 (Bcl-xL; experiment 2, duplicate 2): 0.205
B1: MTA2 (protein, UniProt O94776 1-668, looked up)
Metastasis-associated protein …: MAANMYRVGDYVYFENSSSNPYLVRRIEELNKTANGNVEAKVVCLFRRRDISSSLNSLADSNAREFEEESKQPGVSEQQRHQLKHRELFLSRQFESLPATHIRGKCSVTLLNETDILSQYLEKEDCFFYSLVFDPVQKTLLADQGEIRVGCKYQAEIPDRLVEGESDNRNQQKMEMKVWDPDNPLTDRQIDQFLVVARAVGTFARALDCSSSIRQPSLHMSAAAASRDITLFHAMDTLQRNGYDLAKAMSTLVPQGGPVLCRDEMEEWSASEAMLFEEALEKYGKDFNDIRQDFLPWKSLASIVQFYYMWKTTDRYIQQKRLKAAEADSKLKQVYIPTYTKPNPNQIISVGSKPGMNGAGFQKGLTCESCHTTQSAQWYAWGPPNMQCRLCASCWIYWKKYGGLKTPTQLEGATRGTTEPHSRGHLSRPEAQSLSPYTTSANRAKLLAKNRQTFLLQTTKLTRLARRMCRDLLQPRRAARRPYAPINANAIKAECSIRLPKAAKTPLKIHPLVRLPLATIVKDLVAQAPLKPKTPRGTKTPINRNQLSQNRGLGGIMVKRAYETMAGAGVPFSANGRPLASGIRSSSQPAAKRQKLNPADAPNPVVFVATKDTRALRKALTHLEMRRAARRPNLPLKVKPTLIAVRPPVPLPAPSHPASTNEPIVLED
